Measured values taken from article PMC9892613.
Where “and” joins values, the source holds several entries; their conditions need not be identical. Equal values may be shown once.

Legend:
[1] = biological target: HIV-1 capsid protein p24 (His-p24) (HIV-1) (UniProt P12493); assay: ITC; nanobody (200 uM, syringe) titrated into His-p24 (12.5 uM, cell); 10 mM phosphate pH 8, 25 mM NaCl; 25.1 C; at least triplicate
[2] = biological target: HIV-1 capsid protein p24 (His-p24) (HIV-1) (UniProt P12493); assay: BLI; in the same nanobody storage buffer (Fig. S5)

Row | Binder | dH [1] | Kd [2] [nM]
1 | nanobody 59H10 (VHH) VHH: DVQLQESGGGLVQAGGSLRLSCAASGSISRFNAMGWWRQAPGKEREFVARIVKGFDPVLADSVKGRFTISIDSAENTLALQMNRLKPEDTAVYYCFAALDTAYWGQGTQVTVSS | -3.9 kcal/mol | 0.77
2 | nanobody 37E7 (VHH) VHH: DVQLQESGGGLVQAGGSLRLSCAASGSISRFNAMGWWRQAPGKEREFVARIVKGGYAVLADSVKGRFTISIDSAENTLALQMNRLKPEDTAVYYCFAALDTAYWGQGTQVTVSS | -4.1 kcal/mol and -4.09 kcal/mol | 9.6
